In US20190225691A1 (SHANGHAI HENLIUS BIOTECH, published 2019):
Substitutions are numbered along the chain they refer to.

B1: PL3#7-19 Fab (Fab, V domains shown)
VH: QVQLVQSGAEVKKPGSSVKVSCKASGGTFSSYPISWVRQAPGQGLEWMGRIIPILGIANYAQKFQGRVTITADKSTSTAYMELSSLRSEDTAVYYCARSRDGYAFGAFDVWGQGTLVTVSS
VL: QSVVTQPPPVSGAPGQRVTISCTGSSSNIGGGYDVHWYQQLPGTAPKLLIYGNSTRPSGVPDRFSGSKSGTSASLAITGLQAEDEADYYCQTYDSSLSATVVFGGGTKLTVL
B2: PL3#7-43 Fab (Fab, V domains shown)
VH: B1 VH with D101P, V110I
VL: B1 VL with I29V, G31A, T55N, P57S, L97G, T100R
B3: PL3#7-54 Fab (Fab, V domains shown)
VH: B1 VH with N59D, D101P, V110I
VL: B1 VL with G31Q, G52A, T55N, T100R

target: T1, human PD-L1 ECD-His (human, UniProt Q9NZQ7 19-238); experiment: Fab ELISA screen after panning on hPD-L1-His; coated antigen not named
T1 construct: extracellular domain; Analyte in all SPR and BLI runs; also called hPD-L1_ECD-His; hPD-L1 ECD-His; not shown: His tag
T1 sequence (Q9NZQ7 19-238): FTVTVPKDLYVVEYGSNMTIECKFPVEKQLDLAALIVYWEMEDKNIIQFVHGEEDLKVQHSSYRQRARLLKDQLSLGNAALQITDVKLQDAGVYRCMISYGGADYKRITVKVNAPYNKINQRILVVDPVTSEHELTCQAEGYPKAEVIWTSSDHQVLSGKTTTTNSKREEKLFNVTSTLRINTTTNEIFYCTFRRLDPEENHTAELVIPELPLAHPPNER

Binding result, binds:
B1, B2, B3
